Results: US20080020964A1, “Test System for the Discovery of Substances for the Promotion of Neuraxonal Growth” (priority 2003, published 2008)

What was measured:
[1] = system: PC12 cells; assay: Neurite growth in PC12 cells transiently transfected with Smn or hnRNP-R and -Q; assay type: cell-based, rat; conditions: transient overexpression, differentiation with 50 ng/ml NGF for three days
Procedure: Rat pheochromocytoma cells (PC12) were cultivated in DMEM (Invitrogen, Carlsbad, Calif., USA)+10% horse serum+5% fetal calf serum+antibiotics. Before the transfection, the cells were plated out in a high density in 24-well culture dishes and transfected with 1 μg plasmid DNA (Lipofectamine 2000; Invitrogen, Carlsbad, Calif., USA). For this purpose, expression plasmids were used, into which wildtype forms marked with epitope tags (HA tag of FLAG tag) or mutated versions of Smn, hnRNP-R or hnRNP-Q have been cloned. On the day after the transfection, the cells were plated out in 35 mm culture dishes on glass plates coated with poly-DL-or nithine in a density of 1,000 cells/cm^2. As a differentiation medium, DMEM+2% horse serum and 1% fetal calf serum+50 ng/ml NGF+antibiotics were used. After three days, the cells were fixed and stained. The PC12 cells were fixed with 4% paraformaldehyde (PFA) in buffered common salt solution (PBS). […] After washing again with TBS-T, the cells were embedded in Mowiol and evaluated at the fluorescence microscope or the confocal microscope as mentioned above.

[2] = system: 3′ untranslated region of β-actin mRNA; assay: Binding of radioactively marked β-actin mRNA to immunoprecipitated HA-marked hnRNP-R (filter, PSL); conditions: HA-marked protein from transfected HEK 293 cells, 32P-marked RNA, 30 minutes at room temperature
Procedure: The untranslated 3′ regions of β-actin from the stop codon to the poly-A sequence or the so-called zipcode region (Kislauskis et al., 1994) were amplified by RT-PCR and cloned into a plasmid with the binding site for the T7 RNA polymerase (pTZ19). Optionally, a poly-A tail of 30 nucleotides was added. (Used primers:
actinUTRfwd […], actinUTRpolyAfullrev, ATGAGAATTC-T(30)-[…], actinUTRpolyAziprev, ATGA-GAATTC-T(30)-[…], actinUTRfullrev, […]). The plasmids were linearized by digestion with EcoRI at the 3′ end, and were purified. […]
A cell line from human embryonic kidney cells (HEK 293) was transfected with expression constructs marked by HA epitope for the wildtype forms or mutated versions of Smn or hnRNP-R. After 48 hours, the cells were lysated in lysis buffer (25 mM Tris-HCl pH=8.0, 137 mM NaCl, 2 mM EGTA, 2 mM EDTA, 10% glycerol, 1% Triton X-100, 0.05% β-mercaptoethanol and protease inhibitors; Roche, Bale, Switzerland), and the HA-marked proteins were purifies by immunoprecipitation with anti-HA agarose (HA.11, Covance, Denver, Pa., USA). […] These filters were exposed with phosphoimager plates (BAS-2500, Photo Film Europe GmbH, Duesseldorf, Germany), and the bound radioactivity was measured as photo-stimulating luminescence (PSL) by means of the AIDA software package (Raytest, Straubenhardt, Germany).

[3] = system: PC12 cells; assay: Neurite growth in Smn or hnRNP-R or -Q overexpressing stable PC12 cell lines; assay type: cell-based, rat; conditions: differentiated seven days
Procedure: For preparing stable cell lines, PC12 cells were cultivated as described above, and transfected with expression vectors for the wildtype form or mutated Smn, hnRNP-R or hnRNP-Q. Thereafter, the cells were selected in a small cell density with the antibiotic G418 with regard to their neomycin resistance. Individual clones were tested by Western blot analysis for their stable expression of the constructs to be expressed. For measuring the neurite length, the cells were plated out as described above on coated glass plates, differentiated by the addition of differentiation medium and fixed, stained after seven days, and the neurite growth was quantified as described above.

[4] = system: PC12 cell lines; assay: β-actin content in neurites and growth cones of cultivated PC12 cell lines (immunostaining); assay type: cell-based, rat; conditions: stable PC12 cell lines, anti-actin / anti-β-actin antibodies
Procedure: The cultivation of PC12 cell lines and the fixation, staining and evaluation was performed as described above. As antibodies, monoclonal anti-Smn antibodies (BD Biosciences, Lexington, Ky., USA, 1:500), rabbit anti-hnRNP-R antibodies (Rossoll et al., 2002; 1:1,000), anti-actin (Roche, Bale, Switzerland, 1:200) and β-actin (Abcam, Cambridge, UK; 1:1,000) were used. Since in neurites preferably β-actin is localized, the results are similar for anti-actin and specifically anti-β-actin.

Molecule	effect on neurite growth [1]	binding to the 3′ untranslated region of β-actin mRNA [2]	neurite length versus control cell lines (untransfected or empty plasmid) [3]	β-actin staining in the growth zones of the neurites [4]
SmnY272C: Smn with a point mutation, no interaction with hnRNP-R, also found in SMA patients	no stimulating effect			
hnRNP-R: heterogeneous nuclear ribonucleic protein R, epitope-tagged wildtype form overexpressed from an expression plasmid (protein, UniProt O43390 2-633, looked up, epitope tag) Heterogeneous nuclear …: ANQVNGNAVQLKEEEEPMDTSSVTHTEHYKTLIEAGLPQKVAERLDEIFQTGLVAYVDLDERAIDALREFNEEGALSVLQQFKESDLSHVQNKSAFLCGVMKTYRQREKQGSKVQESTKGPDEAKIKALLERTGYTLDVTTGQRKYGGPPPDSVYSGVQPGIGTEVFVGKIPRDLYEDELVPLFEKAGPIWDLRLMMDPLSGQNRGYAFITFCGKEAAQEAVKLCDSYEIRPGKHLGVCISVANNRLFVGSIPKNKTKENILEEFSKVTEGLVDVILYHQPDDKKKNRGFCFLEYEDHKSAAQARRRLMSGKVKVWGNVVTVEWADPVEEPDPEVMAKVKVLFVRNLATTVTEEILEKSFSEFGKLERVKKLKDYAFVHFEDRGAAVKAMDEMNGKEIEGEEIEIVLAKPPDKKRKERQAARQASRSTAYEDYYYHPPPRMPPPIRGRGRGGGRGGYGYPPDYYGYEDYYDDYYGYDYHDYRGGYEDPYYGYDDGYAVRGRGGGRGGRGAPPPPRGRGAPPPRGRAGYSQRGAPLGPPRGSRGGRGGPAQQQRGRGSRGSRGNRGGNVGGKRKADGYNQPDSKRRQTNNQQNWGSQPIAQQPLQQGGDYSGNYGYNNDNQEFYQDTYGQQWK		bind to the 3′ untranslated region of β-actin mRNA	three times longer neurites	strong concentration of β-actin
hnRNP-Q: heterogeneous nuclear ribonucleic protein Q, epitope-tagged wildtype form overexpressed from an expression plasmid (protein, UniProt O60506 2-623, looked up, epitope tag) Heterogeneous nuclear …: ATEHVNGNGTEEPMDTTSAVIHSENFQTLLDAGLPQKVAEKLDEIYVAGLVAHSDLDERAIEALKEFNEDGALAVLQQFKDSDLSHVQNKSAFLCGVMKTYRQREKQGTKVADSSKGPDEAKIKALLERTGYTLDVTTGQRKYGGPPPDSVYSGQQPSVGTEIFVGKIPRDLFEDELVPLFEKAGPIWDLRLMMDPLTGLNRGYAFVTFCTKEAAQEAVKLYNNHEIRSGKHIGVCISVANNRLFVGSIPKSKTKEQILEEFSKVTEGLTDVILYHQPDDKKKNRGFCFLEYEDHKTAAQARRRLMSGKVKVWGNVGTVEWADPIEDPDPEVMAKVKVLFVRNLANTVTEEILEKAFSQFGKLERVKKLKDYAFIHFDERDGAVKAMEEMNGKDLEGENIEIVFAKPPDQKRKERKAQRQAAKNQMYDDYYYYGPPHMPPPTRGRGRGGRGGYGYPPDYYGYEDYYDYYGYDYHNYRGGYEDPYYGYEDFQVGARGRGGRGARGAAPSRGRGAAPPRGRAGYSQRGGPGSARGVRGARGGAQQQRGRGVRGARGGRGGNVGGKRKADGYNQPDSKRRQTNNQNWGSQPIAQQPLQGGDHSGNYGYKSENQEFYQDTFGQQWK			three times longer neurites	
